Source: paper PMC10143413, “Proteomic Profiling of Mouse Brain Pyruvate Kinase Binding Proteins: A Hint for Moonlighting Functions of PKM1?” (International Journal of Molecular Sciences, 2023)

Target: T1, Pyruvate kinase PKM1, purified from rabbit skeletal muscle (rabbit, UniProt P11974-1 1-531)
T1 construct: Pyruvate kinase PKM, isoform M1, rabbit skeletal muscle; called full-length PKM1; amine-coupled to a CM5 chip or used as analyte in SPR; also called full-length PKM1; PK1; source: isolated from skeletal muscles of adult rabbits, electrophoretically homogeneous
Test: SPR; Biacore T200, 25 °C; GAPDH, LDH or aldolase A amine-coupled to a CM5 chip, PKM1 as analyte in 0.05 M potassium phosphate buffer pH 7.4, 10 µL/min for 5 min; global fit to the 1:1 binding model
Conditions: both partners purified

T1 sequence (P11974 whole entry, canonical isoform): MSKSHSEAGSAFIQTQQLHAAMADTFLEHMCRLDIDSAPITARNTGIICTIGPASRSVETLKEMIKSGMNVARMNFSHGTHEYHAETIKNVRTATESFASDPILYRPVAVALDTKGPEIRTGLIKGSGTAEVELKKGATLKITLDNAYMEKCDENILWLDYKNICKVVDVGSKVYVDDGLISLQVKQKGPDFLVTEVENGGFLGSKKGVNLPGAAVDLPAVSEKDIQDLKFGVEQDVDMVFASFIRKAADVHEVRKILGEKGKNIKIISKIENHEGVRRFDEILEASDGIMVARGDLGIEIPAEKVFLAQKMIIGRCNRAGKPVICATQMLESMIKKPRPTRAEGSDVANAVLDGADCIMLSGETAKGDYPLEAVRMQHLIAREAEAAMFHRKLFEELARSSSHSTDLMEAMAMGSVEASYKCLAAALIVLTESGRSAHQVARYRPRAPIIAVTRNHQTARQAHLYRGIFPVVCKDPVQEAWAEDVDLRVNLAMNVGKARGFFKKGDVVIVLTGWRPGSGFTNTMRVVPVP

Kd: 1060 nM
koff: 0.00162 s⁻¹
kon: 1530 M⁻¹ s⁻¹
B1: Glyceraldehyde 3-phosphate dehydrogenase, purified from rabbit skeletal muscle (enzyme)
chain: not shown
notes: Glyceraldehyde-3-phosphate dehydrogenase, rabbit skeletal muscle; also called GAPDH; GAPD; source: isolated from skeletal muscles of adult rabbits, electrophoretically homogeneous
